Data taken from article PMC12448071.

Molecular target: F-actin (actin from rabbit skeletal muscle, polymerised) (rabbit) (UniProt P68135)
Test: co-sedimentation; high-speed cosedimentation titration: constant 500 nM FL-HTT with increasing F-actin, 30 min RT; apparent constant (Kdapp); fit accounts for ligand depletion and incomplete saturation

recombinant human full-length wild-type HTT (21 glutamines), P42858 1-3142
Kd: 236 nM
